In patent US20200040071A1 (HUB BIOTECH, published 2020):

T1: endothelial monocyte activating polypeptide II (EMAP II) (UniProt Q12904 147-312, limits assumed)
T1 construct: also called EMAP II antigen; EMAP II protein
T1 sequence (looked up): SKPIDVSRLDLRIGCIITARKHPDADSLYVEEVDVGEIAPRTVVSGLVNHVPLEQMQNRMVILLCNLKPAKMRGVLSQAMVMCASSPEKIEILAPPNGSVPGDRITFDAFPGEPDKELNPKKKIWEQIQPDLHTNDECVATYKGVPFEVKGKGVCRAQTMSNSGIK


Legend:
[1] = biological target: T1, endothelial monocyte activating …; experiment: SPR, Reichert SR7500DC, EMAP II fixed to PEG chip, antibody flowed
Description: (§1) A surface plasmon resonance (SPR) method was used to further compare the antigen-binding abilities between BAP015-hum03 and BAP072-EMAP II-1. Reichert SR7500DC system (Reichert Technologies, Depew, N.Y.) was used for SPR, and Scrubber2 software was used for data collection. 2.5 μg of EMAP II protein was fixed to PEG chip (Reichert Technologies), after which BAP015-hum03 and BAP072-EMAP II-1 antibodies were flowed thereinto to compare the binding abilities therebetween.

[2] = biological target: T1, endothelial monocyte activating …; experiment: SPR (Reichert SR7500DC), EMAP II protein fixed to a PEG chip (ligand printed on the sheet as hAIMP1), antibody as analyte at 0-40 nM
Description: as §1

[3] = biological target: T1, endothelial monocyte activating …; experiment: ELISA, EMAP II coated at 1 ug/ml, anti-IgG-HRP detection, absorbance at 450 nm
Description: (§2) Each well of a 96-well plate was coated with 100 μl of EMAP II antigens at a concentration of 1 μg/ml, and incubated at 37° C. for 2 hours. The coated antigens were blocked with 5% BSA and washed with washing buffer solution. […] The resulting ones were washed 3 times with washing buffer solution, then treated with anti-IgG-HRP antibodies, and then incubated for 1 hour. Then, the resulting ones were washed 3 times with washing buffer solution, and treated with a substrate for 30 minutes at room temperature. Color development was performed, after which stop solution was inserted thereinto, such that absorbance was measured at a wavelength of 450 nm to test an antigen-binding ability of the antibodies.

[4] = biological target: T1, endothelial monocyte activating …; experiment: ELISA, plate coated with EMAP II antigen (1 µg/ml), detection with anti-IgG-HRP, OD 450 nm
Description: as §2

| Kd [1] [nM] | koff [2] [s⁻¹] | kon [2] [M⁻¹ s⁻¹] | fold antigen-binding ability against BAP015-hum03 [1] [fold] | concentration of antibodies to reach O.D 2.5 [3] [ng/mL] | fold antigen-binding ability against the other antibodies (BAP015-hum03, BAP072-EMAP II-2, II-3, II-4) [3] [fold] | EC50 (read off the curve) [4] [ng/mL] | Binder |
| --- | --- | --- | --- | --- | --- | --- | --- |
| 0.709 | 5.38e-05 | 75900 | – | – | – | – | BAP015-hum03 antibody (antibody, V domains shown, The printed variable regions end at FGQG (light) and WGQG (heavy), so they seem to stop short of the end of framework 4; also called anti-EMAP II parent antibody; control group) VH: EVQLVQSGAEVKKPGATVKISCKVSGYTFTSYTMHWVRQAPGQGLEWMGYINPSSGFTNYNQKFKDRVTISADKSISTAYLQWSSLKASDTAMYYCASRFAYWGQG VL: AIQLTQSPSSLSASVGDRVTITCKASQDVSTAVAWYQQKPGKAPKLLIYSASYRYTGVPSRFSGSGSGTDFTFTISRLEPEDFAVYYCQQHYSIPYTFGQG |
| 0.063 | 1.7e-06 | 27000 | ~10 | ≤ 10 | ~10 | ~7 | BAP072-EMAP II-1 antibody (antibody, V domains shown) VH: EVQLVQSGAEVKKPGATVKISCKVSGYTFTSYTMHWVRQAPGQGLEWMGYINPRSGFTNYRQKFKHRVTISADKSISTAYLQWSSLKASDTAMYYCFSRFAYWGQG VL: AIQLTQSPSSLSASVGDRVTITCKASQDVSTAVAWYQQKPGKAPKLLIYSASYRYWGVPSRFSGSGSGTDFTFTISRLEPEDFAVYYCQQHYSIPYTFGQG |
| – | – | – | – | ≥ 100 | – | – | BAP072-EMAP II-3 antibody (antibody, V domains shown, also called BAP072-EMAP 11-3) VH: EVQLVQSGAEVKKPGATVKISCKVSGYTFTSYTMHWVRQAPGQGLEWMGYINPRSGFTNYRQKFKHRVTISADKSISTAYLQWSSLKASDTAMYYCFSRFAYWGQG VL: AIQLTQSPSSLSASVGDRVTITCKASQDVSTAVAWYQQKPGKAPKLLIYSASYGYTGVPSRFSGSGSGTDFTFTISRLEPEDFAVYYCQQHYSIPYTFGQG |
| – | – | – | – | ≥ 100 | – | – | BAP072-EMAP II-2 antibody (antibody, V domains shown, also called BAP072-EMAP 11-2) VH: EVQLVQSGAEVKKPGATVKISCKVSGYTFTSYTMHWVRQAPGQGLEWMGYTNPSSGFTNYTQKFKDRVHISADKSISTAYLQWSSLKASDTAWYYCASRFAYWGQG VL: AIQLTQSPSSLSASVGDRVTITCKASQDVSTAVAWYQQKPGKAPKLLIYSASYRYWGVPSRFSGSGSGTDFTFTISRLEPEDFAVYYCQQHYSIPYTFGQG |
| – | – | – | – | ≥ 100 | – | – | BAP072-EMAP II-4 antibody (antibody, V domains shown) VH: EVQLVQSGAEVKKPGATVKISCKVSGYTFTSYTMHWVRQAPGQGLEWMGYTNPSSGFTNYTQKFKDRVHISADKSISTAYLQWSSLKASDTAWYYCASRFAYWGQG VL: AIQLTQSPSSLSASVGDRVTITCKASQDVSTAVAWYQQKPGKAPKLLIYSASYGYTGVPSRFSGSGSGTDFTFTISRLEPEDFAVYYCQQHYSIPYTFGQG |
